Key:
[1] = molecular target: native isocitrate dehydrogenase from Methylobacillus flagellatus (Methylobacillus flagellatus ATCC51484); assay: native gel or EMSA; gradient non-denaturing PAGE (4-20%, w/v), protein stain and zymogram staining for NAD+- and NADP+-dependent activity; band compared with protein markers
MfIDH = molecular target: T1, MfIDH (Methylobacillus flagellatus, UniProt Q1GZD1); assay: NAD(P)H formation at […] nm; format: biochemical; conditions: read-out: % inhibition at 2 mM
T1 construct: gene Mfla_2139; native enzyme purified from M. flagellatus cells, untagged; 413 residues; homodimer (recombinant N-terminal 6xHis form said to be essentially the same)
T1 sequence (Q1GZD1 1-413): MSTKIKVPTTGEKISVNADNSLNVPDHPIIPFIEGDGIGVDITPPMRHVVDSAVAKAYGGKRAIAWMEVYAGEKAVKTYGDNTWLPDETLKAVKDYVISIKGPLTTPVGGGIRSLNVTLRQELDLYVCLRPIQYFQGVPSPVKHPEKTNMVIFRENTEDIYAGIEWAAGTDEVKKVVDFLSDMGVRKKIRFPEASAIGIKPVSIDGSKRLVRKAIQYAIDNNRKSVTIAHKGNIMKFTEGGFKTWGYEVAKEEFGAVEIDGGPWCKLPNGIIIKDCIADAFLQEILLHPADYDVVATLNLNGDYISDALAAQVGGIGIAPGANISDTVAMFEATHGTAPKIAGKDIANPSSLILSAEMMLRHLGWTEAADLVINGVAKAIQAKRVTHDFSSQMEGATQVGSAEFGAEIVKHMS

[2] = molecular target: recombinant 6x-His-tagged isocitrate dehydrogenase from Methylobacillus flagellatus (Methylobacillus flagellatus ATCC51484); assay: SEC; HiLoad 10/300 Superdex 200, 0.05 M potassium phosphate buffer pH 7.0, 0.15 M NaCl, 0.01% sodium azide, 0.5 mL/min; calibrated with standards of 29-669 kDa
purified protein [3] = substrate: NC(=O)c1ccc[n+]([C@@H]2O[C@H](COP(=O)(O)OP(=O)(O)OC[C@H]3O[C@@H](n4cnc5c(N)ncnc54)[C@H](O)[C@@H]3O)[C@@H](O)[C@H]2O)c1; assay: purified protein; format: biochemical, Methylobacillus flagellatus; conditions: saturating DL-isocitrate, Mn2+, 100 mM Tris-HCl pH 8.5, 42°C, apparent, pH 8.5
purified protein [4] = substrate: NC(=O)c1ccc[n+]([C@@H]2O[C@H](COP(=O)(O)OP(=O)(O)OC[C@H]3O[C@@H](n4cnc5c(N)ncnc54)[C@H](OP(=O)(O)O)[C@@H]3O)[C@@H](O)[C@H]2O)c1; assay: purified protein; format: biochemical, Methylobacillus flagellatus; conditions: saturating DL-isocitrate, Mn2+, 100 mM Bis-Tris-HCl pH 6.0, 42°C, apparent, pH 6.0
purified protein [5] = substrate: O=C(O)CC(C(=O)O)C(O)C(=O)O; assay: purified protein; format: biochemical, Methylobacillus flagellatus; conditions: cosubstrate NAD+ (saturating), Mn2+, 100 mM Tris-HCl pH 8.5, 42°C, pH 8.5

native isocitrate dehydrogenase from Methylobacillus flagellatus (enzyme)
stoichiometry N [1]: 2

Nc1ncnc2c1ncn2[C@@H]1O[C@H](COP(=O)(O)OP(=O)(O)OP(=O)(O)O)[C@@H](O)[C@H]1O [ATP]
inhibition at 2000 µM (MfIDH): 50%

recombinant 6x-His-tagged isocitrate dehydrogenase from Methylobacillus flagellatus (enzyme)
stoichiometry N [2]: 2

B1: MfIDH (Methylobacillus flagellatus KT) (protein)
chain: T1 sequence (Q1GZD1 1-413)
notes: native enzyme purified from M. flagellatus cells, untagged; 413 residues; homodimer (recombinant N-terminal 6xHis form said to be essentially the same)
Km (purified protein [3]): 113 µM
kcat (purified protein [3]): 166 s⁻¹
kcat/Km (purified protein [3]): 1.5e+06 M⁻¹ s⁻¹
Km (purified protein [4]): 184 µM
kcat (purified protein [4]): 56 s⁻¹
kcat/Km (purified protein [4]): 300000 M⁻¹ s⁻¹
Km (purified protein [5]): 9.0 µM
